The source of these data is US20140343095A1, “Methods of Diagnosing and Treating Multiple Sclerosis” (The Brigham and Women's Hospital, Inc., priority 2009, published 2014).

The assay relates to PARP-1. The experiment in a line: FACS PARP-1 activity in innate and adaptive immune cells treated with HSP60 or 15-HC. It is filed as cell-based, human. Particulars: CD4+ T cells, CD8+ T cells, B cells of healthy controls; HSP60 1, 5, 10 ng/ml; 15-HC 1, 5, 10 ug/ml. The text has this: FIGS. 17A-C are bar graphs showing that 15-HC, but not HSP60, activates PARP-1 in cells of the innate immune system. Mean PARP-1 activity as determined by FACS in classical monocytes (17A), inflammatory monocytes (17B) and dendritic cells (17C) of healthy controls (HC) treated with activated with HSP60, 15-HC or left untreated. The data are shown as mean fluorescence intensity (MFI)±SD of 5 samples/group.
FIGS. 18A-C are bar graphs showing that both 15-HC and HSP60 activate PARP-1 in cells of the adaptive immune system. Mean PARP-1 activity as determined by FACS in CD4+ T cells (18A), CD8+ T cells (18B) and B cells (18C) of healthy controls (HC) treated with activated with HSP60, 15-HC or left untreated. The data are shown as mean fluorescence intensity (MFI)±SD of 5 samples/group.
A new FACS-based method was developed to detect PARP-1 activation based on the intracellular detection of the PARP-1 product PAR with specific antibodies. Briefly, the cells were incubated with antibodies to CD16/32 to block unspecific antibody binding, and then stained for surface markers. […] The samples were then analyzed by FACS.
To investigate whether the increased activity of the TLR2/PARP-1 axis in SPMS patients resulted from increased levels of TLR2 ligands, the levels of 15-HC and HSP60 were measured in serum samples from healthy controls, RRMS and SPMS patients. […]

B1: HSP60: TLR2 agonist HSP60 (protein, UniProt P10809 27-573, looked up)
60 kDa heat shock protein, …: AKDVKFGADARALMLQGVDLLADAVAVTMGPKGRTVIIEQSWGSPKVTKDGVTVAKSIDLKDKYKNIGAKLVQDVANNTNEEAGDGTTTATVLARSIAKEGFEKISKGANPVEIRRGVMLAVDAVIAELKKQSKPVTTPEEIAQVATISANGDKEIGNIISDAMKKVGRKGVITVKDGKTLNDELEIIEGMKFDRGYISPYFINTSKGQKCEFQDAYVLLSEKKISSIQSIVPALEIANAHRKPLVIIAEDVDGEALSTLVLNRLKVGLQVVAVKAPGFGDNRKNQLKDMAIATGGAVFGEEGLTLNLEDVQPHDLGKVGEVIVTKDDAMLLKGKGDKAQIEKRIQEIIEQLDVTTSEYEKEKLNERLAKLSDGVAVLKVGGTSDVEVNEKKDRVTDALNATRAAVEEGIVLGGGCALLRCIPALDSLTPANEDQKIGIEIIKRTLKIPAMTIAKNAGVEGSLIVEKIMQSSSEVGYDAMAGDFVNMVEKGIIDPTKVVRTALLDAAGVASLLTTAEVVVTEIPKEEKDPGMGAMGGMGGGMGGGMF
On to B1, for which the “PARP-1 activation in cells of the adaptive immune system (FIG. 18)” value is “could activate”.
